Experimental data: publication PMC4794898

Key:
[1] = molecular target: PF3D7_0919900 recombinant protein, KSVSF to KSASA (Plasmodium falciparum); assay: ELISA; plates coated with 25 pmol/well of each recombinant Pip in PBS overnight at 4 °C; biotin-PfPP1 4 pmol/well in solution
[2] = molecular target: PF3D7_0220000 recombinant protein with a stop in the second position of the KKVRF motif (Plasmodium falciparum); assay: as above

Substance “biotin labeled PfPP1 (from UniProt Q8ILV1 1-304) (enzyme)” has a decrease of the binding against the wild protein (100 %) [1] of 70% and a decrease of the binding against the wild protein (100 %) [2] of 86%.
